Km, kcat and kcat/Km data for eight molecules are collected here from publication PMC8503589 (The Journal of Biological Chemistry, 2021).

One series deals with T1, B. cihuensis ADC.
T1 construct: gene aADC
The following applies: 50 mM HEPES pH 7.7, 100 mM NaCl, 20 μM PLP, 1 mM DTT, 26 °C.

For another series, the system named is T2, C. botulinum ODC (aODC).
T2 construct: gene CLI_3176

Series [1] relates to F. necrophorum ODC (aODC). The following applies: 50 mM HEPES pH 7.7, 100 mM NaCl, 20 μM PLP, 1 mM DTT, 26 °C.
Substrate in series [2]: N=C(N)NCCC[C@H](N)C(=O)O
As to the kind of experiment: purified protein. The following applies: 50 mM HEPES pH 7.7, 100 mM NaCl, 20 μM PLP, 1 mM DTT, 26 °C.

Substrate in series [3]: NCCC[C@H](N)C(=O)O
The experiment in a line: purified protein. To be noted: 50 mM HEPES pH 7.7, 100 mM NaCl, 20 μM PLP, 1 mM DTT, 26 °C.

Substrate in series [4]: NCCCC[C@H](N)C(=O)O
The experiment in a line: purified protein. To be noted: 50 mM HEPES pH 7.7, 100 mM NaCl, 20 μM PLP, 1 mM DTT, 26 °C.

The Km is the concentration of substrate that gives half-maximal velocity. For the molecule `N=C(N)NCCC[C@H](N)C(=O)O` [L-arginine], the Km in the series on B. cihuensis ADC came to 450 ± 10 µM; in the series with C. botulinum ODC (aODC) it was 3800 ± 250 µM; in series [1], 19000 ± 2300 µM.

In the case of `NCCC[C@H](N)C(=O)O` [L-ornithine], the Michaelis constant (Km) is 600 ± 30 µM with C. botulinum ODC (aODC) and 650 ± 30 µM in series [1].

As to `NCCCC[C@H](N)C(=O)O` [L-lysine], the Michaelis-Menten constant (Km) in the series on C. botulinum ODC (aODC) is 2000 ± 90 µM; in series [1], 4000 ± 1700 µM.

B1: C. exile ODC (Caldisericum exile AZM16c01) (protein)
chain: MEQERAPLYEAVSKYIKRKMIPFHMPGHSQGKGAPKILKRLFGDKFFDFDLTEVSGLDYLHYAQGVIREAENLASSLYGTEATIFLVNGTTAGVHAMILDSVRENEKIIIGRNSHRSVIGGILLAKAKPVFVQPEFNEEFGIITNVTPESIKKAITENPDAKAVLVTTPNYYGLQGRIKDIIDIVHENGMRALVDEAHGAHFPFNSKFPKSAIYLGADLVTQSAHKTLPTLTQTSFLHIPSKDVNVDRIEQILSIIESSSPSYIFMTALDVARREMALHGKEMWDKAIEVAEYARERISALDGFKVITDKTINGKDVYAFDPIKLTINVQELGYSGFEFEHILNKNGIEIELADLQNVLLFITIGTSKRDIDTLVSVLKRIEPRKEKSTVRMPKLPEAPSFAMLPFEAFQREFEVVPLRETKGRVSWGIVAPYPPGIPVLAPGMIIDEECIEFTQEVFEKGGLVQGSIRYGSEIAIRVVKGE
A word on the kcat: it is the number of substrate molecules converted per active site and unit of time at saturation. By kcat/Km is commonly meant the second-order rate constant that governs catalysis at low substrate concentration. B1: in the series “purified protein [2]”, the Km was 540 ± 40 µM, the kcat was found to be 0.04 ± 0.002 s⁻¹ and the kcat/Km was 82 ± 3.2 M⁻¹ s⁻¹. Further, in the series “purified protein [3]”, the Km stood at 180 ± 10 µM, the turnover number (kcat) came out at 0.11 s⁻¹ and the kcat/Km was found to be 590 M⁻¹ s⁻¹.

B2: L. ferroxidans LDC (Leptospirillum ferrooxidans C2-3) (protein)
chain: MTPYDHNRTPLFDAMVALAESRKVSFHTPGHKSGKGISTRFRKFVGPKVFSIDLTCLDEVDSLQKPRGVIREAQELAADIYGADQSFFLVNGTSGGNQAMILSVMKPGEPILLTRILHKSVVSGLIMTDCKPIFIPLQSTPDCDLLLNDRTDTIIQAMNRHPEAKKLFLTSPNYYGVTLDLPTIIQEAHSRGVTVLVDEAHGPHLHFHDDLPPSAMASNADLCVQSTHKIIGGMTQASILHAKKANIDIERLTSVLRYLQTTSPSYILMASLDLARMQMATEGKKLLSKAIDLARKARERIRKIPGLTCIDRDEVKAASGGDNDLDETKLAIGVKGIGLTGYQVSQKLNHEFGIQVEMADLHHVLVIVSIGDHREDLDRLVRAMEAISHQAMTLKSIIPINVKPPYAIASSRMNPREAFFSSHQSVPLEEALGKTAADIVTVYPPGIPLLIPGEEITQTVLDHLILMRETGATLDGLDSDNRLINIV
Regarding B2, in the series “purified protein [4]”, the Km was 370 ± 70 µM, the catalytic constant (kcat) came out at 0.25 s⁻¹ and the specificity constant (kcat/Km) came out at 700 M⁻¹ s⁻¹. Further, in “purified protein [3]”, the Michaelis-Menten constant (Km) was 28000 ± 7200 µM, the kcat was found to be 0.17 s⁻¹ and the kcat/Km came out at 4.2 M⁻¹ s⁻¹.

B3: Psychrilyobacter sp. S5 ADC (Psychrilyobacter piezotolerans) (protein)
chain: MQNKTPLFDALKNYHKTDIVSFDVPGHKKRFQNEFSDYVGHKIIELDTNSMKELDILNNPTGVIREAHQLMADAYSADEAFFLVNGTTSGIQTMVMSACNPGDKIILPRNVHKSAINALILSGATPVYIDPEVDETLGISLGISVEKIKEALIKDPDIKAVFIINPTYYGAVSDLEEIIKICHEKNMVVLVDEAHGAHFPFHEKFPKNAMALGADMSAVSIHKTGGSLTQSSVLFLNHRRIKQERVKNMLNLTQTTSASYLLMTSLDVARKTLVTQGDEIFNDLLEMISKFREELNSIPGIRCFKSILSDKLYDFDDTKIGINLHGLGLTGFEGYDILREKYNIQMELADTHNILGIASIGDTWEDYQKLIDALKEMAENYEGNNQLIDFNELESLELVVSPRDAFYSETESIPLSEAIGKVSGESIMVYPPGIPLLIQGERITKDLIDHIYFLKEQKAVITGMNDKTLNNISILKGEHR
Turning to B3, in the series “purified protein [2]”, the Michaelis-Menten constant (Km) is 210 ± 20 µM, the kcat was determined as 0.3 s⁻¹ and the catalytic efficiency (kcat/Km) is 1400 M⁻¹ s⁻¹. Moreover, in the series “purified protein [4]”, the Michaelis-Menten constant (Km) turned out to be 6600 ± 1300 µM, the kcat was 0.06 s⁻¹ and the catalytic efficiency (kcat/Km) stood at 9.5 M⁻¹ s⁻¹.

B4: M. blatticola ADC (Methanimicrococcus blatticola) (protein)
chain: MDQNATPIIDALREFDQKNITSYDVPGHKRGIREDDFQKLVGKEVYLMDVNSPVGMDTFAHPKGVIKHSLELAAEAYKADNAFYLVNGSSSGVQIMIMTVCYDGEKILIPRNAHKSVTNSLILSGAVPVFMEPEINQNFAIASGMTLKTIQKYVEANPDAKALFLVYPTYYGACADLEQIIEYAHSKDIVVMVDQAHGAHFSFSSALPKSAAELGADLVVASTHKTGGSLTQSAMLLHNEGLVKYHSIKKRVLMFHTTSPSYLLMASLESSRKLLATQGEEIFHELVHECRKVKKEISKIPGLSVLDENEGVTTMTYDPTKIVINVTKLGLDGFDVYDIMFEKYGIQMELAEPTIVLAVIGIGDTKETIWRLVDAFRDLSDTYYGKYEMLDIPEEIVYVPPQILSPRQAFYADKVSVKIGEAVGRVAAEAVMIYPPGIPICIPGELITAETIEEILYCQENSDCVQKDSKEKDHILVVDDSTE
With B4, the Michaelis constant (Km) in “purified protein [2]” stood at 650 ± 60 µM.

B5: H. thermocellum ADC (aADC) (Acetivibrio thermocellus ATCC 27405) (protein)
chain: MVLRMNQLKTPVFDAVKRYVESNVIQFHVPGHKQGAGLEELREYIGETALKMDANGMEDLDFANNPTGVIYESEMLAAQAFGAQHAYFLVNGTTSGVQAMIMSACEPGDKIILPRNAHKSTIGGIILSGAVPVYVQPEINEKLGIAMGITVESLKKAIKENPHAKAVFIINPTYYGIASDLKSLVRIAHRYEMAVLVDEAHGAHMSFHDDFPLTAMEVGADMSAVSTHKTGGSLTQSSLLLLRGNMISPERVKQVLNLTYTSSASYLLMCSLDIARKQLATKGSDMLEETLRLARMAREEINKIEGLYAFGKELIGTPGCHDFDETKLGICVSGLGYTGYEMEAKLRKEYNIQIEMSDLSNILAIVSIGDREENLVALINALKDIAAKTEKKEYPKPPIIPPTPKMIVSPRDAFYSPKKIVPLDKSVGEISGEMVMAYPPGIPVVCMGERITQDIVDYIKILKEQKTQLQGTADPYIDHIMVLGVD
As for B5, in “purified protein [2]”, the Michaelis-Menten constant (Km) came to 130 ± 10 µM, the kcat came out at 0.05 s⁻¹ and the kcat/Km is 410 M⁻¹ s⁻¹.
